In patent US20130131320A1 (published 2013):

Legend:
[1] = target: T1, soluble EGFR (human epithelial cell growth factor receptor 1, Her1) (human, UniProt P00533 25-645); assay: SPR
[2] = target: T1, soluble EGFR (human epithelial cell …); assay: ITC
[3] = target: T1, soluble EGFR (human epithelial cell …); assay: SPR; remark: listed apart in the source

Row | Binder | Ka [1] [M⁻¹] | Ka [2] [M⁻¹] | koff [3] [s⁻¹]
1 | h528 Fv comprising mutant VL LRL (other) VH: QVQLVQSGAEVKKPGASVKVSCKASGYTFTSYWMHWVRQAPGQGLEWMGNIYPGSGGTNYAEKFKNRVTMTRDTSISTAYMELSRLRSDDTAVYYCARSGGPYFFDYWGQGTLVTVSS VL: not shown | 3.5e+08 | 4.1e+09 | 0.00085
2 | h528 Fv comprising mutant VL LRS (other) VH: QVQLVQSGAEVKKPGASVKVSCKASGYTFTSYWMHWVRQAPGQGLEWMGNIYPGSGGTNYAEKFKNRVTMTRDTSISTAYMELSRLRSDDTAVYYCARSGGPYFFDYWGQGTLVTVSS VL: DIVMTQSPLSLPVTPGEPASISCRSSQNIVHNNGITYLEWYLQKPGQSPQLLIYLVSRRSSGVPDRFSGSGSGTDFTLKISRVEAEDVGVYYCFQGSHIPPTFGQGTKVEIKR | 6.8e+08 | 1.05e+09 | 0.00078
3 | h528Fv WT (other) VH: QVQLVQSGAEVKKPGASVKVSCKASGYTFTSYWMHWVRQAPGQGLEWMGNIYPGSGGTNYAEKFKNRVTMTRDTSISTAYMELSRLRSDDTAVYYCARSGGPYFFDYWGQGTLVTVSS VL: DIVMTQSPLSLPVTPGEPASISCRSSQNIVHNNGITYLEWYLQKPGQSPQLLIYKVSDRFSGVPDRFSGSGSGTDFTLKISRVEAEDVGVYYCFQGSHIPPTFGQGTKVEIKR | 4e+07 | 2.1e+07 | 0.006
